From paper PMC3253074, “βB1-Crystallin: Thermodynamic Profiles of Molecular Interactions” (PLoS ONE, 2012) come the findings set out here.

B5: murine βB1-crystallin, wild type recombinant (natural protein, UniProt Q9WVJ5 1-250, looked up)
chain: MSQAAKASATTAVNPGPDGKGKGAPSTGPAPAPGPTPVPASVPRPAAKVGDLPPGSYRLIVFEQENFQGRRVEFSGECLNLGDRGFDRVRSLIVVSGPWVAFEQSAFRGEMFVLEKGEYPRWDTWTSSYRSDRLMSFRPIRMDSQEHKICLFEGANFKGNTMEIQEDDVPSLWVYGFCDRVGSITVSGGTWVGYQYPGYRGYQYLLEPGDFRHWNEWGAFQPQMQAVRRLRDRQWHQEGCFPVLTAEPPK
notes: βB1-crystallin, mouse, wild type recombinant; monomer printed as 28 kDa; source: E. coli, purified (ion-exchange and size-exclusion chromatography)

The target of data set [1] is B5. Nature of the data set: SEC; equimolar mixture (~20 µM each) incubated 24 h, Superdex 75 HR10/30, Buffer A (50 mM Tris-HCl, 1 mM EDTA, 0.15 M NaCl, 1 mM TCEP, pH 7.5), 0.5 ml/min. Particulars: both partners purified. (Size exclusion chromatography separates by hydrodynamic size, large species first.)
Data set [2] deals with the molecule itself. Nature of the data set: AUC; sedimentation equilibrium at 5°C increments over 5-30°C, 0.5 mg/ml, Buffer A pH 7.5; enthalpy from van't Hoff plots of ln(Kd/Co) against 1/T; dimer to monomers (βB1, βA3), heterotetramer to heterodimers (βB1/βA3).
Data set [3] deals with the molecule itself. Described as above. This is another data set of the same source.
Data set [4] deals with the molecule itself. Nature of the data set: AUC; sedimentation equilibrium, 18,500 rpm, 5 °C, Buffer A (50 mM Tris-HCl, 1 mM EDTA, 0.15 M NaCl, 1 mM TCEP, pH 7.5), 0.5 mg/ml; dimer to monomers.
Data set [5] concerns the molecule itself. Nature of the data set: AUC; sedimentation equilibrium, 18,500 rpm, 10 °C, Buffer A (50 mM Tris-HCl, 1 mM EDTA, 0.15 M NaCl, 1 mM TCEP, pH 7.5), 0.5 mg/ml; dimer to monomers.
Data set [6] deals with the molecule itself. Nature of the data set: AUC; sedimentation equilibrium, 18,500 rpm, 15 °C, Buffer A (50 mM Tris-HCl, 1 mM EDTA, 0.15 M NaCl, 1 mM TCEP, pH 7.5), 0.5 mg/ml; dimer to monomers.
Data set [7] concerns the molecule itself. Nature of the data set: AUC; sedimentation equilibrium, 18,500 rpm, 20 °C, Buffer A (50 mM Tris-HCl, 1 mM EDTA, 0.15 M NaCl, 1 mM TCEP, pH 7.5), 0.5 mg/ml; dimer to monomers.
Data set [8] deals with the molecule itself. Nature of the data set: AUC; sedimentation equilibrium, 18,500 rpm, 25 °C, Buffer A (50 mM Tris-HCl, 1 mM EDTA, 0.15 M NaCl, 1 mM TCEP, pH 7.5), 0.5 mg/ml; dimer to monomers.
Data set [9] concerns the molecule itself. Nature of the data set: AUC; sedimentation equilibrium, 18,500 rpm, 30 °C, Buffer A (50 mM Tris-HCl, 1 mM EDTA, 0.15 M NaCl, 1 mM TCEP, pH 7.5), 0.5 mg/ml; dimer to monomers.
Data set [10] concerns the molecule itself. Nature of the data set: AUC; sedimentation equilibrium of the equimolar βB1/βA3 mixture, 18,500 rpm, 16 h, 20°C, Buffer A pH 7.5; heterotetramer to heterodimers.
Data set [11] concerns the molecule itself. Nature of the data set: AUC; sedimentation equilibrium of the equimolar βB1/βA3 mixture, 18,500 rpm, 5 °C, Buffer A pH 7.5, 0.5 mg/ml; heterotetramer to heterodimers.
Data set [12] concerns the molecule itself. Nature of the data set: AUC; sedimentation equilibrium of the equimolar βB1/βA3 mixture, 18,500 rpm, 10 °C, Buffer A pH 7.5, 0.5 mg/ml; heterotetramer to heterodimers.
Data set [13] concerns the molecule itself. Nature of the data set: AUC; sedimentation equilibrium of the equimolar βB1/βA3 mixture, 18,500 rpm, 15 °C, Buffer A pH 7.5, 0.5 mg/ml; heterotetramer to heterodimers.
Data set [14] concerns the molecule itself. Nature of the data set: AUC; sedimentation equilibrium of the equimolar βB1/βA3 mixture, 18,500 rpm, 25 °C, Buffer A pH 7.5, 0.5 mg/ml; heterotetramer to heterodimers.
Data set [15] concerns the molecule itself. Nature of the data set: AUC; sedimentation equilibrium of the equimolar βB1/βA3 mixture, 18,500 rpm, 30 °C, Buffer A pH 7.5, 0.5 mg/ml; heterotetramer to heterodimers.

B1: human βA3-crystallin, wild type recombinant (natural protein, UniProt P05813 1-215, looked up)
chain: METQAEQQELETLPTTKMAQTNPTPGSLGPWKITIYDQENFQGKRMEFTSSCPNVSERSFDNVRSLKVESGAWIGYEHTSFCGQQFILERGEYPRWDAWSGSNAYHIERLMSFRPICSANHKESKMTIFEKENFIGRQWEISDDYPSLQAMGWFNNEVGSMKIQSGAWVCYQYPGYRGYQYILECDHHGGDYKHWREWGSHAQTSQIQSIRRIQQ
notes: βA3-crystallin, human, wild type recombinant; monomer printed as 25 kDa; source: E. coli, purified (ion-exchange and size-exclusion chromatography)
As to B1, in data set [1], the binding result was “binds”. Moreover, the stoichiometry N (in general, a count of units in the complex or per binding partner) in data set [2] is 2. Also, in [3], the “dH (van't Hoff, ΔCp = 0)” value came to 8 ± 3 kcal/mol and the “dH (van't Hoff, ΔCp nonzero)” value was 7.2 ± 2.5 kcal/mol.

B2: human βA3-crystallin (natural protein, UniProt P05813 1-215, looked up)
chain: METQAEQQELETLPTTKMAQTNPTPGSLGPWKITIYDQENFQGKRMEFTSSCPNVSERSFDNVRSLKVESGAWIGYEHTSFCGQQFILERGEYPRWDAWSGSNAYHIERLMSFRPICSANHKESKMTIFEKENFIGRQWEISDDYPSLQAMGWFNNEVGSMKIQSGAWVCYQYPGYRGYQYILECDHHGGDYKHWREWGSHAQTSQIQSIRRIQQ
notes: βA3-crystallin, human, wild type recombinant; monomer 25 kDa as printed; source: E. coli, purified (ion-exchange and size-exclusion chromatography)
For B2, the Kd (usually the concentration at which binding is half-saturated) came out at 11.8 µM in data set [4]; 6.47 µM in data set [5]; 5.32 µM in [6]; 5.21 µM in [7]; 1.62 µM in [8]; 2.07 µM in data set [9].

B3: βB1/βA3 heterodimer (murine βB1 with human βA3), the unit of the heterodimer-heterotetramer equilibrium (complex, murine | human)
chain 1: MSQAAKASATTAVNPGPDGKGKGAPSTGPAPAPGPTPVPASVPRPAAKVGDLPPGSYRLIVFEQENFQGRRVEFSGECLNLGDRGFDRVRSLIVVSGPWVAFEQSAFRGEMFVLEKGEYPRWDTWTSSYRSDRLMSFRPIRMDSQEHKICLFEGANFKGNTMEIQEDDVPSLWVYGFCDRVGSITVSGGTWVGYQYPGYRGYQYLLEPGDFRHWNEWGAFQPQMQAVRRLRDRQWHQEGCFPVLTAEPPK
chain 2: METQAEQQELETLPTTKMAQTNPTPGSLGPWKITIYDQENFQGKRMEFTSSCPNVSERSFDNVRSLKVESGAWIGYEHTSFCGQQFILERGEYPRWDAWSGSNAYHIERLMSFRPICSANHKESKMTIFEKENFIGRQWEISDDYPSLQAMGWFNNEVGSMKIQSGAWVCYQYPGYRGYQYILECDHHGGDYKHWREWGSHAQTSQIQSIRRIQQ
notes: βB1-crystallin, mouse, wild type recombinant, as m1; βA3-crystallin, human, wild type recombinant, as m2; The heterodimer is the unit of the best-fit model; also called βB1/βA3 complex; [βB1/βA3]4 (the tetramer); source: equimolar mixture (~20 µM each) of the purified E. coli proteins, incubated 24 h
In the case of B3, the Kd in data set [10] came to 8.78 µM. In addition, in [3], the “dH (van't Hoff, ΔCp = 0)” value was -24.5 ± 6.2 kcal/mol and the “dH (van't Hoff, ΔCp nonzero)” value is -29.6 ± 8.1 kcal/mol.

B4: βB1/βA3 heterodimer (murine βB1 with human βA3) (complex, murine | human)
chain 1: MSQAAKASATTAVNPGPDGKGKGAPSTGPAPAPGPTPVPASVPRPAAKVGDLPPGSYRLIVFEQENFQGRRVEFSGECLNLGDRGFDRVRSLIVVSGPWVAFEQSAFRGEMFVLEKGEYPRWDTWTSSYRSDRLMSFRPIRMDSQEHKICLFEGANFKGNTMEIQEDDVPSLWVYGFCDRVGSITVSGGTWVGYQYPGYRGYQYLLEPGDFRHWNEWGAFQPQMQAVRRLRDRQWHQEGCFPVLTAEPPK
chain 2: METQAEQQELETLPTTKMAQTNPTPGSLGPWKITIYDQENFQGKRMEFTSSCPNVSERSFDNVRSLKVESGAWIGYEHTSFCGQQFILERGEYPRWDAWSGSNAYHIERLMSFRPICSANHKESKMTIFEKENFIGRQWEISDDYPSLQAMGWFNNEVGSMKIQSGAWVCYQYPGYRGYQYILECDHHGGDYKHWREWGSHAQTSQIQSIRRIQQ
notes: βB1-crystallin, mouse, wild type recombinant; as the chain of Wm1; βA3-crystallin, human, wild type recombinant; as the chain of Wm2; also called βB1/βA3 complex; source: equimolar mixture (~20 µM each) of βB1 and βA3 purified from E. coli, incubated at room temperature for 24 h
As for B4, the dissociation constant (Kd) in data set [11] amounted to 1.21 µM; in data set [12] it was 0.54 µM; in data set [13], 1.14 µM; in [14], 12.8 µM; in data set [15], 22.1 µM.
For B5, in data set [2], the “stoichiometry N” value came out at 2. In data set [3], the “dH (van't Hoff, ΔCp = 0)” value is -13.3 ± 5.6 kcal/mol and the “dH (van't Hoff, ΔCp nonzero)” value is -21.2 ± 4.6 kcal/mol.

B6: murine βB1-crystallin (natural protein, UniProt Q9WVJ5 1-250, looked up)
chain: MSQAAKASATTAVNPGPDGKGKGAPSTGPAPAPGPTPVPASVPRPAAKVGDLPPGSYRLIVFEQENFQGRRVEFSGECLNLGDRGFDRVRSLIVVSGPWVAFEQSAFRGEMFVLEKGEYPRWDTWTSSYRSDRLMSFRPIRMDSQEHKICLFEGANFKGNTMEIQEDDVPSLWVYGFCDRVGSITVSGGTWVGYQYPGYRGYQYLLEPGDFRHWNEWGAFQPQMQAVRRLRDRQWHQEGCFPVLTAEPPK
notes: βB1-crystallin, mouse, wild type recombinant; monomer 28 kDa as printed; source: E. coli, purified (ion-exchange and size-exclusion chromatography)
B6: the Kd turned out to be 3.99 µM in data set [4]; 1.64 µM in data set [5]; 1.91 µM in data set [6]; 4.71 µM in data set [7]; 12.6 µM in data set [8]; 17.6 µM in data set [9].
